Drawing on PMC2139591, this text covers Ka for one substance.

This experiment concerns the target NGF-specific-receptor-like molecule (NSR) from C 1300 neuroblastoma cells (mouse (endogenous in C 1300 NB cells)). Briefly: radioligand binding.

In the case of “nerve growth factor (NGF), mouse salivary glands (from UniProt P01139 122-241) (ligand)”, the Ka was found to be 1e+07 M⁻¹.
